Values of other authors as cited in patent publication US20210100896A1, “METHODS AND COMPOSITIONS FOR STIMULATING THE IMMUNE SYSTEM” (University of Miami, priority 2017, published 2021).

Test system: tumor
Conditions: tumor bearing mice

B1: Flt3L: cytokine that promotes hematopoietic progenitor commitment to the DC lineage (protein, UniProt P49771 27-235, looked up)
Fms-related tyrosine kinase 3 …: TQDCSFQHSPISSDFAVKIRELSDYLLQDYPVTVASNLQDEELCGGLWRLVLAQRWMERLKTVAGSKMQGLLERVNTEIHFVTKCAFQPPPSCLRFVQTNISRLLQETSEQLVALKPWITRQNFSRCLELQCQPDSSTLPPPWSPRPLEATAPTAPQPPLLLLLLLPVGLLLLAAAWCLHWQRTRRRTPRPGEQVPPVPSPQDLLLVEH
- intratumoral accumulation of DC and tumor inhibition: enhanced intratumoral accumulation of DC and tumor inhibition
